Source: the supplement of paper PMC12042874
± gives the uncertainty stated by the source.

Assay: amyloid nucleation score (Sup35N fusion, yeast selection) (log enrichment); library NNK3; higher = more nucleation; inactive = no reads after selection
Procedure, shortened: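 Random libraries were run with three technical output replicates. In each, psi-negative yeast expressing Sup35N fused to peptides of 20 random codons were induced 24 hours with 100 μM copper sulfate and grown 7 days at 30°C on medium lacking adenine and uracil, and input and output plasmid inserts were Illumina-sequenced. The nucleation score is the DiMSum log enrichment of output over input reads, centred on the mode score of non-aggregating sequences, and sequences under 100 input reads were excluded.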

| Substance | amyloid nucleation score |
| --- | --- |
| WGLWSVSVCWMRLFPGY | inactive |
| YVSDD | inactive |
| LFTLTWSWQLKGFFYYHGYV | inactive |
| TGTSSKYVGEVLHSLVVWFA | -0.575 ± 1.5 |
| STYLMSFVLYWLWQRSLDTC | inactive |
| WAEFLCLSSSFFLDM | inactive |
| HHKMVISVSSRNQSEKRSDW | inactive |
| LYGISL | inactive |
| RMMCARIFRVSWLSSCLEGG | inactive |
| GDDIEILSFEVWRVFSKSWS | inactive |
| VVMIPNIFCDWRGNGNNQCG | 1.33 ± 0.11 |
| QLVFYHVDLHILPFWSAI | 2.15 ± 0.081 |
| TFNSLVCQFIKPLHHLFATL | inactive |
| TCECCLMMVEFRALCHRWEL | inactive |
| NLEGRKRLMILVFKCCELAI | inactive |
| NFRSSI | inactive |
| ILNISCFYEWYDHTLNSQSV | -0.203 ± 0.42 |
| LEYLKV | inactive |
| GRQYVCYYTFLKLYWLKSMW | inactive |
| QWFRKLFYLTSLEDAPQIPR | inactive |
| SVDVTFSVYHY | 0.702 ± 0.19 |
| KSMSLKTFCGWGETQYVFFV | inactive |
| LHAMPLEGFLHLCPKLTCHQ | 0.676 ± 0.18 |

| Substance | amyloid nucleation score |
| --- | --- |
| LVVSVRTYPTGCCPYKMLNQ | inactive |
| HVGCLIYDIQCETPGSHPSR | inactive |
| PGWLPQGMDNNSLTAVCVTI | inactive |
| GDTVLVILSILSVGCC | 1.2 ± 0.15 |
| GGQVRDCDNVEQCSATNSEG | inactive |
| SLRFISSLWV | inactive |
| SSLVSCYRIFNRSGADLGLT | inactive |
| KFEGLF | inactive |
| FWTGVACNTAGCCLGYESLR | inactive |
| VFNKCVQFYFILGRNNEIWI | 2.56 ± 0.077 |
| WTRHGSEFVCYNSGHLWVFD | 0.164 ± 0.31 |
| IRPWQLCMSKLSHIRRATPY | inactive |
| RGESHVCLCYL | 0.761 ± 0.17 |
| GITRVRSSFVSAASHV | inactive |
| ELYMQMCYRRIGCV | inactive |
| TTRYHF | inactive |
| IEYWFASRTFWSCRNMVRH | -0.342 ± 0.98 |
| SLLNSNHHGRVMQPRRINSD | inactive |
| LLDCFKLYSSHLAEGRTTVT | inactive |
| LIRRSWSYCVLVSCTDGSHS | inactive |
| GYSTRYLSV | inactive |
| FLYYLLMLVRVRCFEQVVIV | inactive |
| CLFSHYLV | inactive |

| Substance | amyloid nucleation score |
| --- | --- |
| VLSIDTDYKFIGHASDYASI | 0.959 ± 0.16 |
| ACMLNEWRNVVRPYLCLSKN | inactive |
| YLFVELYYL | 0.187 ± 0.75 |
| NMIAVYLVLPRDSLGMIFTF | inactive |
| EGFIVSRISAGDRSGDMEGC | inactive |
| WKGWSFNLLLRGILQAIIAS | inactive |
| CLGADCVAHFSYFHA | inactive |
| LYLYI | inactive |
| LRCVGGSGSEGLVLSRMVTG | inactive |
| YESRGEGVMPSTQLWMSRLG | inactive |
| FIQWQSESVYIAYSNFTSSM | inactive |
| GRMWSACLGYMWGCFWREFW | inactive |
| WDFGPEVLSE | inactive |
| IRVRLINSGAL | inactive |
| YRKLFDFRRVSTLHFTKSN | inactive |
| CDIISMALEPQVCTEYDLQR | 1.38 ± 0.1 |
| ACTLDTLFSFVPSHNWSGQK | inactive |
| GRARNHHRKNRGIGL | inactive |
| KLVQLYTLKFFGLNCSKSVI | inactive |
| ISIETGWRNHFTSVPACMLH | inactive |
| FTSQYIYDAIRRLRKMSIMS | inactive |
| AISPNASTWTACTFYCMDSG | -0.027 ± 0.26 |
| YSRLEFKRWHVVIDSWRWMD | inactive |

| Substance | amyloid nucleation score |
| --- | --- |
| QYFPDIY | inactive |
| ACDTVEDGTSGGHCWVCGDG | inactive |
| VHNYHERALKKHEGTTVRNF | 0.154 ± 0.4 |
| VMTITLVLKWYGLLT | inactive |
| ILRSLVSLWYGCDCW | 0.661 ± 0.16 |
| NHLGVRWVLSMNMTFPHHNL | 1.29 ± 0.089 |
| FYMWFMRTGLTKYPNGAIKV | inactive |
| RRFVNVLGMHC | 0.693 ± 0.16 |
| CLLYSYCCPRKIVN | inactive |
| RPYGFKAIVYGQCR | inactive |
| LIYRSLPFSCLSSGV | inactive |
| YLVSDE | inactive |
| YFPSSCCNDFVFSSLEFQSM | 2.12 ± 0.055 |
| SMRSA | inactive |
| VSVNMFLYISVNYKELGCEY | 1.93 ± 0.056 |
| QTVKHIKICGVCWVSMLMF | 2.07 ± 0.086 |
| DFVRVEMNYLDENDGGCYL | inactive |
| YCSLLSDERGSSVTGILAVF | inactive |
| RYVRCNRMWIIDLDEHARGK | inactive |
| TSAYGMSSWGFWS | inactive |
| NTLDDDFRISPDATVYSVYW | inactive |
| ELCTVLIVRFSRGSERLKNE | inactive |
| VYLIKPMNDALSHHEPIKWD | inactive |

| Substance | amyloid nucleation score |
| --- | --- |
| KWGIGMGPSHSGLISWGHNE | -0.448 ± 1.8 |
| DVNCALYGKGLDVCRI | inactive |
| ESFESVYR | inactive |
| APGCGTNLGMIFALGWALWR | inactive |
| VSFQD | inactive |
| YIGVRGFLLYPFNRVFEVMM | inactive |
| PLPAYCGYVLIGVHGYPFDI | inactive |
| DYLLWESKGLVWKCMMTCCG | inactive |
| KISFWVRERFNYRCTIGIEC | inactive |
| ISSNTGFCPAVMLGIPFFRI | inactive |
| FGVSFKYFCVQEQLAKDSVA | inactive |
| FLDPYSHRLSAKALYM | inactive |
| NREHMAISSCRLVKHCFFWT | inactive |
| VLVLAMITFYNLYMYYDVGR | inactive |
| AWQYVGMISFM | inactive |
| FGEYKMISVEYLVLEIVRYM | inactive |
| QGSLVKFS | inactive |
| LSKPFPSMHFSRRWNRNGLW | inactive |
| VVRIDSSLGKFNFQSAKD | inactive |
| MVIGNVCFIIYGSFNEE | 2.33 ± 0.089 |
| KNDGKEF | inactive |
| FSRFIRQ | 0.677 ± 0.15 |
| SLRDRKDRWGCQMLRRWVDF | inactive |

| Substance | amyloid nucleation score |
| --- | --- |
| FVTYCVRQETV | 0.578 ± 0.15 |
| VDAIASGVYWPPVVVYSWLF | inactive |
| RTWIRAYVSMQFRMCQDTDV | inactive |
| SILDCLLKMGFNTILHACWN | inactive |
| FRLRYRYFCRGRGCMDDLEY | -0.288 ± 0.8 |
| KFGDPIRFWVTYYTNRSWSG | -0.732 ± 1.4 |
| ISTLSVSLS | -0.258 ± 0.36 |
| FERDMVQ | inactive |
| HDARGLIIFARSHSAESRVR | inactive |
| WPTFDCRRM | inactive |
| YDLGVAVLNRNSKRSC | inactive |
| SALPE | inactive |
| EKSICWSNFIAWITIWPKGR | inactive |
| SRKGDMPLDIDSWTCTVAFF | 1.13 ± 0.12 |
| LVYNQVVHRFLTLVFLSYMS | inactive |
| YCAFLTNPHVLDFSMNCCKL | 2.29 ± 0.059 |
| STCYSCVMLMVGS | inactive |
| DGTMANRIVVF | inactive |
| MMADDVSLICGCGRQ | 1.01 ± 0.19 |
| GSYLDDRGSGASIATLLVVM | inactive |
| LVDVDVHR | -0.994 ± 2.5 |
| DAYNVYMMSSRPAHYQGHYL | inactive |
| LLLTSVL | inactive |

| Substance | amyloid nucleation score |
| --- | --- |
| CCFYRSSWVFKLGEGRVIIP | 0.319 ± 0.43 |
| FLRNIFDGRTWTFKDSNMSH | inactive |
| PLCFLFNQFSYGA | inactive |
| SWVFFD | inactive |
| KVVVKEIQILVGSAGSKRMS | 0.638 ± 0.25 |
| NVAAFGVAMPGMSV | inactive |
| RCNLGTAAHFCKY | inactive |
| GPARTRWILPRVLGCTYRAA | inactive |
| EFWQFDRYVLSNTVSLFSGC | inactive |
| VENLHNHYQYVFKNGMCDG | 0.263 ± 0.22 |
| SMVVERGNQRLRSTYYADCV | inactive |
| TLDHEWGFLSEKATVL | inactive |
| TLFVA | inactive |
| SRSCVACGLY | inactive |
| IESSYFNNNRFGRHVVKQVG | inactive |
| NSYFLSRTLLSTSGRRTCRM | inactive |
| QLLVF | -1.23 ± 1.9 |
| QGSMLRHY | inactive |
| FRVAAMAISGTISCQYFQGL | 0.739 ± 0.17 |
| GGTVFSNCVGVRRLNMYINY | inactive |
| GIRVF | inactive |
| LQLLENQSNAIYWHGGNESD | inactive |
